# Residue numbers refer to the chain shown, from its start. Like-named read-outs stand apart in the source and are kept apart here.
# B1: Anti-CTLA4(ip-05)×CCR8-6 (bispecific antibody)
# heavy 1: not shown
# light 1: not shown
# heavy 2: not shown
# light 2: EIVLTQSPATLSLSPGERATLSCRASQSVSSYLAWYQQKPGQAPRLLIYDASNRATGIPARFSGSGSGTDFTLTISSLEPEDFAVYYCQQYSAWPLTFGGGTKVEIKRTVAAPSVFIFPPSDEELKSGTASVQCLLNNFYPREAKVQWKVDNALQSGNSQESVTEQDSKDSTYSLSSELTLSKADYEKHKVYACEVTHQGLSSPVTKSFNRGEC
# B2: Anti-CTLA4(ip-05)×CCR8-4 (bispecific antibody)
# heavy 1: not shown
# light 1: not shown
# heavy 2: not shown
# light 2: B1 light 2 with E124Q, T129R, Q133V, E178R, T180Q
# B3: Anti-CCR8(ADI68741-R2-21-DA)-Afu (antibody, V domains shown)
# VH: EVQLVQSGAEVKKPGASVKVSCKASGYTFTSYYMHWVRQAPGQGLEWMGIINPMTGSASHAQKFQGRVTMTRDTSTSTVYMELSSLRSEDTAVYYCVRDAAARHKYFAFWGRGTLVTVSS
# VL: EIVLTQSPATLSLSPGERATLSCRASQSVSSYLAWYQQKPGQAPRLLIYDASNRATGIPARFSGSGSGTDFTLTISSLEPEDFAVYYCQQYSAWPLTFGGGTKVEIKR
# B4: Anti-CCR8(ADI68741)-1 Afu (antibody, V domains shown)
# VH: B3 VH with M54G, A58T, V97A, A100G, A102F, A108D, F109L
# VL: B3 VL
# B5: Anti-CCR8(ADI68741)-1 (antibody, V domains shown)
# VH: B3 VH with M54G, A58T, V97A, A100G, A102F, A108D, F109L
# VL: B3 VL
# B6: ONC-392 Analog (antibody, V domains shown)
# VH: QVQLQESGPGLVKPSETLSLTCTVSGFSLTSYGLSWIRQPPGKGLEWIGYIWYDGNTNFHSPLKSRVTISVDTSKNQFSLKLSSVTAADTAVYYCAKTEGHYYGSNYGYYALDYWGQGTLVTVSS
# VL: DIQMTQSPSSLSASVGDRVTITCRASENIYSNLAWYQQKQGKAPKLLLYAATNLQDGVPSRFSGSGSGTDYTLTISSLQPEDFATYFCQHLWGTPYTFGQGTKLEIKR
# B7: Anti-CTLA4(ip-0508) (antibody, V domains shown)
# VH: EVQLVESGGGVVQPGRSLRLSCAASGFTFSSYTMHWVRQAPGKGLEWVTFISEDGNNKYYADSVKGRFTISRDNSKNTLYLQMNSLRAEDTAIYYCARTGWLGPEDYWGQGTLVTVSS
# VL: not shown
# B8: Anti-CTLA4(ip-05)-1 (antibody, V domains shown)
# VH: B7 VH with E105F
# VL: not shown
# B9: Anti-CTLA4(ip-05)-1 Afu (antibody, V domains shown)
# VH: B7 VH with E105F
# VL: not shown
# What was measured:
# Assay in all cases: FACS binding
# [1] = biological target: T1, human CTLA4 and human CCR8 co-expressed on CHOS-hCTLA4/hCCR8 double-positive cells (human, UniProt P16410 36-223; P51685 1-355)
# [2] = biological target: T2, human CTLA4 (overexpressed on CHOS-hCTLA4 cells) (human, UniProt P16410 36-223)
# [3] = biological target: T3, human CCR8 (overexpressed on CHOS-hCCR8 cells) (human, UniProt P51685 1-355)
# [4] = biological target: T1, human CTLA4 and human CCR8 co-expressed …; remark: listed apart in the source
# [5] = biological target: T1, human CTLA4 and human CCR8 co-expressed …; remark: listed apart in the source
# [6] = biological target: T3, human CCR8 (overexpressed on CHOS-hCCR8 …); remark: listed apart in the source
# [7] = biological target: T1, human CTLA4 and human CCR8 co-expressed …; remark: listed apart in the source
# [8] = biological target: T3, human CCR8 (overexpressed on CHOS-hCCR8 …); remark: listed apart in the source
# [9] = biological target: T2, human CTLA4 (overexpressed on …); remark: listed apart in the source
# [10] = biological target: T2, human CTLA4 (overexpressed on …); remark: listed apart in the source
# [11] = biological target: T3, human CCR8 (overexpressed on CHOS-hCCR8 …); remark: listed apart in the source
# T3 sequence (P51685 whole entry): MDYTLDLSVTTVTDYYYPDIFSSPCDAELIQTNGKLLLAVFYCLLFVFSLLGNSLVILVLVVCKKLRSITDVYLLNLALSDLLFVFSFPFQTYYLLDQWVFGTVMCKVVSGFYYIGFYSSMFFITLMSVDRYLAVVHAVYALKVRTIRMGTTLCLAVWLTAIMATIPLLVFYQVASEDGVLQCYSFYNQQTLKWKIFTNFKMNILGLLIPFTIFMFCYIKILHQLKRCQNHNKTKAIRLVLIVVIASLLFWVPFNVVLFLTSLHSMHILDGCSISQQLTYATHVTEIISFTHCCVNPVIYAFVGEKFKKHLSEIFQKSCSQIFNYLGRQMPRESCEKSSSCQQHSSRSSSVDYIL
# T2 sequence (P16410 36-223): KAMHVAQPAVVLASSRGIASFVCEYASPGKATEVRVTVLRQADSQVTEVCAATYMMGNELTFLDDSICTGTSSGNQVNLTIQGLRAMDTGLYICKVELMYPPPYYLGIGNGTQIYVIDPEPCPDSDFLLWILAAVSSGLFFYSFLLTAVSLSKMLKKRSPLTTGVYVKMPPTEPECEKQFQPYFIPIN
# T1 sequence (P16410 36-223, chain 1 of 2): as the sequence (P16410 36-223) above
# T1 sequence (P51685 whole entry, chain 2 of 2): as the sequence (P51685 whole entry) above
binder,measurement,setting,value
B1,EC50,[1],11.3 nM
same,EC50,[2],28.2 nM
same,EC50,[3],6.55 nM
B2,EC50,[1],20.8 nM
same,EC50,[2],77.4 nM
same,EC50,[3],43.9 nM
B3,EC50,[4],22.2 nM
B4,EC50,[4],0.595 nM
B5,EC50,[5],0.351 nM
same,EC50,[6],0.743 nM
same,EC50,[7],0.194 nM
same,EC50,[8],0.215 nM
B6,EC50,[4],0.623 nM
same,EC50,[9],0.521 nM
B7,EC50,[7],361 nM
B8,EC50,[5],11.8 nM
same,EC50,[10],3.6 nM
B9,EC50,[4],98.2 nM
same,EC50,[9],3.98 nM
same,EC50,[11],51.7 nM
